According to patent US20130177979A1 (UNIVERSITY OF CENTRAL FLORIDA RESEARCH FOUNDATION, published 2013):
Where no end group is shown, it is not given here. [ ]: non-standard residue; d: D form. pY = N[C@@H](Cc1ccc(OP(=O)(O)O)cc1)C(=O)O

T1: GpYVKPQ (pTyr peptide of Stat5)
T1 construct: SPR analyte; also called pY694Stat5; pY695Stat5
T1 peptide: G[pY]VKPQ

T2: GpYIKTE (Stat1 pY701 peptide)
T2 construct: SPR analyte; also called pY701Stat1; Stat1 phosphopeptide
T2 peptide: G[pY]IKTE

T3: PEpYINQS (pY1068 peptide of EGFR)
T3 construct: SPR analyte; also called pY1068EGFR
T3 peptide: PE[pY]INQS

T4: PpYLKTK (Stat3-derived pTyr705 peptide)
T4 construct: SPR analyte; also called pY705Stat3; Stat3 pY705 peptide
T4 peptide: P[pY]LKTK


Tests used:
[1] = biological target: T5, human epidermal growth factor receptor (EGFR) on cells (human, UniProt P00533 25-1210); experiment: Fluorescence and confocal microscopy, fluorescently-labeled SPI and anti-EGFR immunostaining in MDA-MB-231 and NIH3T3/hEGFR cells
T5 construct: whole, on cells; SPI is said to associate with the pTyr motifs of the receptor's cytoplasmic tail inside cells; also called hEGFR; EGF receptor
From the text: Fluorescence imaging and immunofluorescence with laser-scanning confocal microscopy.

[2] = biological target: T1, GpYVKPQ (pTyr peptide of Stat5); experiment: SPR (SensiQ); His-tagged full-length Stat3 immobilised on a HisCap sensor chip, GpYVKPQ passed over as analyte; sensorgram shown at 100 µM
[3] = biological target: T2, GpYIKTE (Stat1 pY701 peptide); experiment: SPR (SensiQ), His-tagged protein immobilised on HisCap chip, pTyr peptide as analyte
[4] = biological target: T3, PEpYINQS (pY1068 peptide of EGFR); experiment: as above
[5] = biological target: T4, PpYLKTK (Stat3-derived pTyr705 peptide); experiment: as above
[6] = biological target: T1, GpYVKPQ (pTyr peptide of Stat5); experiment: as above

binding result [1] | Kd [2] | Kd [3] | Kd [4] | Kd [5] | Kd [6] | Binder
binds | – | – | – | – | – | FISKERERAILSTKPPGTFLLRFSESSK (5-carboxyfluorescein attached to the amino-terminus, Used for cell uptake and colocalisation microscopy; also called fluorescently-labeled SPI) [5-carboxyfluorescein-labeled SPI]
– | 1.14 mM | 4.4 µM | 600 nM | 900 nM | 1.2 mM | His-tagged Stat3 (full-length Stat3) (other) MAQWNQLQQLDTRYLKQLHQLYSDTFPMELRQFLAPWIESQDWAYAASKESHATLVFHNLLGEIDQQYSRFLQESNVLYQHNLRRIKQFLQSRYLEKPMEIARIVARCLWEESRLLQTAATAAQQGGQANHPTAAVVTEKQQMLEQHLQDVRKRVQDLEQKMKVVENLQDDFDFNYKTLKSQGDMQDLNGNNQSVTRQKMQQLEQMLTALDQMRRSIVSELAGLLSAMEYVQKTLTDEELADWKRRQQIACIGGPPNICLDRLENWITSLAESQLQTRQQIKKLEELQQKVSYKGDPIVQHRPMLEERIVELFRNLMKSAFVVERQPCMPMHPDRPLVIKTGVQFTTKVRLLVKFPELNYQLKIKVCIDKDSGDVAALRGSRKFNILGTNTKVMNMEESNNGSLSAEFKHLTLREQRCGNGGRANCDASLIVTEELHLITFETEVYHQGLKIDLETHSLPVVVISNICQMPNAWASILWYNMLTNNPKNVNFFTKPPIGTWDQVAEVLSWQFSSTTKRGLSIEQLTTLAEKLLGPGVNYSGCQITWAKFCKENMAGKGFSFWVWLDNIIDLVKKYILALWNEGYIMGFISKERERAILSTKPPGTFLLRFSESSKEGGVTFTWVEKDISGKTQIQSVEPYTKQQLNNMSFAEIIMGYKIMDATNILVSPLVYLYPDIPKEEAFGKYCRPESQEHPEADPGSAAPYLKTKFICVTPTTCSNTIDLPMSPRTLDSLMQFGNNGEGAEPSAGGQFESLTFDMDLTSECATSPM
